A short description of the data set: label from the status in PepcDB records.
Consider “ALVNIVVTNRCDLSCFYCFFYAERAGYIYEPSIEQIKFMVRQVARQRQGSDVHVNIQITGGEPTVREDLVDVVKAIREAGAHYIQLNTNGINVARRYLDNPPGAIDYVRSLREAGVSVVYMSFDGVTPKVNWKNHYEAPFALKAFQEGGLDNVVLVPTVIRTINDHEVGDIIRFAGKHIDVVRGVNFQPVSLTGM”, for which the protein production result was “failed”.

As for “MANKTKSKSLLEKMWRIKWWLLSIFTVLFLLFALFFPLNNYYVELPGGAFDTKEVLTVNKKADDSKGSYNFVAVAQTKATLALMLYTQFNDFAKLQTAEEATGNYSDEDFMRINQFYMETSQNQAVYQGLTLAGKEVSLEYMGVYVLQVADDSSFKGVLNIADTVTAVNGKTFDNSTDMIKYVQGLKLGSKVKVTYMRDGKEKTATGKIIKIANGKNGIGIGLTDHTEIKSPENVKFKLDGVGGPSAGLMFTLAIYDQVSGQDLKAGRKIAGTGTIEKDGAVGDIGGAYLKVKSAADSGADIFFVPNNLVTKEMKKADPDAKTNYQEAKEAAEKLGTKMKIVPVKTAQEAIDYLKKTK”, the protein production result is listed as “failed”.

As for “MAKENEHFLKPDNQSPEESEQLDTVSMEPSQEIWNSTEQETSELQSDTFLSPATVRNSQTTDGYGQAEIVPATPSFMSAAGDSEEVGTPGRSLSEVFSASSLGQRSTRAADRESLQRHELGTNSFSLFSPEKEISFRNRKELEAPSGAAEEIERRVIWGTNVNVDECEQKIKKFLYEFTATTVQQDYEDGDGLQQAKPKPYYLELLTHANEMQYEVINIDLQHVFEFDSELYAYVVTYPTELIAIFDQTLQEVCKEMFATDDSSDIMSSGTSNFHAGRLITRMYNMKDTEIHSMREIDPSHIHQMIGVRGMVVRCSSVIPNMNRAFYSCNNCHWSLFVDIQRGKIEEPIQCDKCQARNSFMLIHNRSVFSDKQMIRIQETPETVPQGETPATMTIVAYDSLVDSARPGDQIEVTGILRAVSVRINPKQRSIRSVFRTYIDAIHILKGKQGRLSNSTEHMDTTSDYYPIGSDTSENALYYFERERSIREISQDPLLYDKLSRSIAPSIYGHEDLKKGILLQLFGGTRKDFSASGGGHFRSDIHVLLVGDPGTSKSLFLQYVHRIAPRGLYTSGRGSSAVGLTAYVTRDPDSNDMVLESGALVLSDKGICCIDEFDKMTDSTRSILHEAMEQQTVSIAKAGIICSLNARTSVLAAANPVESRYNPKLSVVDNIQLPPTLLSRFDLIYLILDNANPEEDKRLGNHITSLFSADTAVVHSDEDPLPSLEPATIHMPNSSHSFLDSTTLASYISYAREKVHPKLNDDAVQRLTKGYVEMRRMGNASKSWSGGIKTITATPRQLESLIRLSEAHAKMRLSDVVESQDVDEALRLVQVAMQQSAIDPITGTIDMDLITTGKSATKRSRIAKLGEAIFQYLQQTKTSDTAVRTSDVLMEVKRSSSMPFTEQDFDDAIHYLVEEERIFRVAGGLRVGTSW”, the protein production result is given as “failed”.

Regarding “MSPIEHAVISAAGIGSRLGLNKPKCLVEVGGKTLLAQHLERLAEIPNVWVVVGFQEELVIEQVRNLRRDAIIVRNPDFDRTNTLQSIHRVSRYLDRRFLAVDGDTFIENRSFERFLRAAAGQAGLIGVSRYTTSDGVRVLLDAGGEAVTAFTREPQHAYEWTGIAILRPDMVVDRPIYVYQALEPYLPLPAQELDAFDIDTASDLDMARRVHLNNWNLND”, the protein production result is listed as “failed”.

For the sequence “MHIKYLWMCDCGGKKSQGVKWLPFILILVIAAGLWQLTPPSGLSAPAWHSAIIFVATIASIVAKVLPIGAVGIIGITVFALAYAAGDKTASGAITTALSELNSSLIWLIVVAFMIARGFIKTGLGRRIALQMIRLLGKRTLGLAYGLAFADLILSPAMPSNTARCGGVIYPIADSLARSFDSHPEDESRSKIGTFLITCIGNVNDVTAALFMTGYTGNLLAVKLAANAGVTLSWGSWFIAALLPCLVSFLIVPLLVYWLTRPEIKHTPDAPDLARKELAQMGSMTRGEWLMLATVGVLLVLWIFGSSLGVDATTASFVGLSILLLSGVLTWEDVKSEKGAWDTLIWFAALLMMANQLKKLGFTSWFGNLIGDSIGSTMHGTSWIIILLLLNAAYFYTHYFFASGNAQIAALYAVFLGVGLHLNIPAAPMALMLAFTSSLYCSLTQYTHARGPILFGAGYVPTGVWWRTGFIISLFNQAVFLTVGLAWWKVLGLY”, the protein production entry was “failed”.

As for “MTDIHHQPEQTDDELYRHFFSRGGSLRLLADIQGEDLESLYGYAKQLFDGGEIAAARNVYQLLSTLDHWNFDYLLALGLCHQRLGAHNEAVVCFGRAGLIKVDDPRAAFYAGISYRLDGNAEYASKAFKAAINWCGEQIDYQAIKASAVDMLALQQEEVPC”, the protein production entry was “failed”.

As for “MEIGVVGKPNVGKSTFFSAATLVDVEIANYPFTTIEANVGVTYAITDHPCKELGCSPNPQNYEYRNGLALIPVKMVDVAGLVPGAHEGRGLGNKFLDDLRMASALIHVVDATGKTDPEGQPTDYHDPVEDIEFLEREIDYWIYGILSKGWDKFAKRIKLQKIKLESAIAEHLSGIGVNENDVWEAMHKLNLPEDPTKWSQDDLLAFASEIRRVNKPMVIAANKADAASDEQIKRLVREEEKRGYIVIPTSAAAELTLRKAAKAGFIEYIPGASEFKVLRDMSEKQKRALMVIKEKVLDRFGSTGVQEVINRVVFDLLKLIPVYPVHDENKLTDQFGNVLPHVFLMKKGSTPRDLAFKVHTDLGKGFLYAINARTKRRVGEDYELQFNDIVKIVSVTR”, the protein production result is on record as “not failed”.

On to “MAASMARGVSARVLLRAAGGSWGPRAGHAAVTSRTFGSTGERRAGEDEADSPELPRDVVNVVFVDRSGKRIPVRGRVGDNVLHLAQRHGVDLEGACEASLACSTCHVYVSEAHLDLLPPPEEREDDMLDMAPLLQENSRLGCQIVLTPELEGAEFALPKITRNFYVDGHIPKPH”, for which the protein production result is reported as “failed”.

For the sequence “MRAASTSKPVGAHEETGHLGGAHSTYVSSAQVTNAEHENELQVVDLPRAPPSLSKAVTYFYITGFGRFALMEDNPTERVVLRLREILQDPGRVQMLHERLVRIVDLRILEVSAAAAHETLAEMKTQCLQMRQKPNISSDGRNRTVCFLHLGVDASADGFLVERSAVNEALFRFPDERGWQPTTPIPIVRGAQLGARYELDGEALASLCERTESLLNEWGRTNWTVRVNDDAGRFLCNYLFYLSAFEGLAENGHHLWQTFFLHCPMETVAPLDVQVDVVLAFMVAVAQSNAQQGPLEGILAR”, the protein production result is “not failed”.

For “MDREQVVALQHQRFAAKKYDPNRRISQKDWEALVEVGRLAPSSIGLEPWKMLLLKNERMKEDLKPMAWGALFGLEGASHFVIYLARKGVTYDSDYVKKVMHEVKKRDYDTNSRFAQIIKNFQENDMKLNSERSLFDWASKQTYIQMANMMMAAAMLGIDSCPIEGYDQEKVEAYLEEKGYLNTAEFGVSVMACFGYRNQEITPKTRWKTEVIYEVIE”, the protein production entry was “not failed”.

As for “MPPFLPLQVIKGVGPKRAVILAEAGIRSIADLYDCFPRRYLDRTTIKKIGALRDGETVTVVGSVTGTRFEGGGRGGSRFKAQITDGSGVLELTWFRGVHYFSKTIRSGELVAAHGRVTFFGRTPGMQHPDFDKLGGDDESGDGQRDDELYKTGAIIPIYPTTEAMKQAGLNSAALRRIVHRAFREHPLRITEYLSPEIIAANNLMPIGEAYRQLHFPDSAEQLERARYRMKWSELFFAQLFFALRRTEERRHLTSVRFERSGEKTASLHERLPFTMTSAQKQAVREIYHDLKSGRQMNRLLQGDVGSGKTLVAQFAMTLAVDNGLQAAFMAPTEILAFQHYAGLKNSLEPLGIRVALLTGRQKKKEREEKLARLERGEIDIAVGTHAIIEAGVQFRRLGLVIIDEQHRFGVLQRKALQEKAENPHVLLMTATPIPRTLTMGIYGDLDVSIIAEMPAGRKPIQTRLCCEAEKPELYRLLRKQIAEGRQAYIVYPLVEESEKIDLKAATESYEQLRREVFPELRLGLIHGQLPAAEKEAVMAEFRSGRLDILVGTTVIEVGVDVPNATIMVIEHAERFGISQLHQLRGRVGRGEHASSCFLVYTKLTGDAKDRLQAMAATGDGFRLSEIDLQIRGAGNMLGREQSGAASGLRIADLLTDGDIMRAARAAAFELIRRDETLTHPENALIRDYYMTHFRKRISLADVG”, the protein production entry was “failed”.

For “MEKEKKEGWAHPEAAEKYAQTADIIIPERKEILSIISKAAIDLGPMDPKIIDLGCGLGDVTAEILKLKLQADVLMIDFSDEMIRRSSERFRDNKNITVVKRDLNQGILDITEDRGFDAVVSCFSIHHVEFENRIKLYSDIRKLLKEQGLFINGDLFREDSPAIDQWEFNNRIFSLMIQLKEKLGQEWTFEELKLNRLENSQKMGDKPGTIWETFHDMKAAGFRHVDCLWKSRNLAIMAATKP”, the protein production result was “failed”.

On to “MQVTADAVPKLNRAAVAAGSADIDAVSGATYTSAGYVKSLQSALDKAAAAAGPAAQESSGADSGSGGGGRSEGDAGQGTQVLTGDAAQTQYGPVQVRVTVSGGRITDVEALQAPKGGRSDQVTADAVPRLNRAAVAAGTADIDAVSGATYTSAGYTQSLQSALDRAGGLEHHHHHH”, for which the protein production result is listed as “failed”.

Regarding “MSSLVQSVDWLAIAPPTLAAVVGLVVLVADLFIGDHKKALLGWVSVAGLAASALLLLPLLDGDRATFCLTGDANTCSYTADHFTLAIQFLVLGGALLAALLSVTALKDADREIPEGEFWFLLLSSAAGAALLPASRDLATLIVALEVASLPAFALVGIKRGDKKSSEAALKFFLSSVTATAVSLMGVSFVYASTGTLYLTEIARKIQHVDGQLHTLAQTGVVLTLVGFAFKTAAVPFHFWVPDTYVGAPLPIAAYLSVVGKAVGFSGLILVTVVAFPSYADVWGPALAALAALTMTVGNVGALRQQATRAYSAVRLLAWSSVGQAGYLLVPIAAAAYSKDAEKAIGSTVAYALMYAAVNLGAFAVAALVGRTKVLNRVSDYRGLYASNPLAALLLGFFLLCLAGLPPGIIGLFAKVTVFSAAVDAGLGWLAVVMAVNVVIALFYYLQWTTLLFRAPEGEPEKHRVPAPLTAAIALTAVLGVALSGAPQLVLRFSDTGLF”, the protein production entry is listed as “failed”.

On to “HQQQRSVMTEEYKVPDGMVGFIIGRGGEQISRIQQESGCKIQIAPDSGGLPERSCMLTGTPESVQSAKRLLDQIVEKGR”, for which the protein production entry was “not failed”.

Regarding “MSDAAISCSWKPFFRELATRLLDYEDRQPELLAALRDASISINHDEGEPLREVDPFTFFSLVLKHTSDATALPLFARVGAALGVQAPSPTDLIGVPWSNPMNAWFFAYRSQRQPGDVPLLWRLARQAVAGILDAQTFEDALKIRKVALPKLTQGLFWLNPERFLALNAVNVPYLQARGLQAAGQVQTLAEYETVLEAAHKLNPDFAALSHRAWLNSQTAALEGNHFPFARYQADAQEFAGDKVKGNLVLDRRYAPLLLDLMAGEWETLKPSRSPYSGREQLAVKVALGGGVKTDGGAFARALLFADDSGFEYVPFSAGLTLEAGLPDGRGDGPRQALQEPARQHTLLTALNAPLPAGLEATLTLNTDFGALFLLPLGPGREAEAAQQLQQYMSGVGRSRRLRVGLSLLPEHLESDKFPELLDAALTYLDALVDLLDGLMRPSEETSTEEIGVPGTRPVAPTPAAFVPVPGVPLNQILYGPPGTGKTYRVVDEALSVLDPAFLSAHPGSEGRAARKARYDELAAQGQISFVTFHQSFGYEDFIEGIKPVMSGGALSYVLQDGVFLEAVRSAGGALAPAAPEAGPSTETQPLVRPDAQVWRMYIDGTAPVSRIRDLSLGRGELRMGSYGKPPRDLTQAGVEDLSGRQLLFKESVRVGDLMLLATAADRIGAVGVVTGDYRFDPHSDPTFATDYAHTRSVKWLAQDLNVGATETLGKSFAPPTLQRVADVTPAQVLQALGVSTAGGETAHAPTPRPHVLIIDEINRGNISKIFGELITLLESGKRTGAPEALTVTLPLSRRPLSVPQSLYVIGTMNTADRSLTLLDAALRRRFVFRPVWPQPEVLPVLDLGGTALDLRKFLHVINDRIERLLSREQVIGHAYLLGLPATLGGVSSALRERILPLLEEYFFEDWSKIREVLGDESKAEALQFIHRSGSGPELRYRLNPEAFENIEAFTGVYAGVSDQDFPFDA”, the protein production result is reported as “failed”.

With “MSQMMQMYQQVGPAQFSAMIGQFAPYFASIAPQFVELRPGYAEVTFPKRREVLNHIGTVHAIALCNAAELAAGTMTDASIPAGHRWIPRGMTVEYLAKATGDVRAVADGSQIDWQATGNLVVPVVAYVDDKPVFRAEITMYVSQA”, the protein production entry is given as “not failed”.
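Also: failed if final PepcDB status was selected cloned or expressed and not failed if soluble or beyond.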
